The results in this text go back to patent US20220031806A1 (Five Prime, published 2022).

This test addresses T1, mouse PD-L1 on mouse splenocytes (mouse, UniProt Q9EP73 19-290).
T1 construct: whole, on cells
Nature of the test: flow cytometry receptor occupancy on BALB/c and C57Bl/6 splenocytes, free PD-L1 by competing Ab clone. The protocol: FIGS. 1A and 1B: Mouse splenocytes were evaluated for mCD80-Fc engagement and receptor occupancy. (A) Splenic immune cell subsets were identified as CD11b+ DCs (B220-Thy1.2−CD49b−CD11c+CD11b+), CD11b− DCs (B220− Thy1.2−CD49b-CD11c+CD11b−), Macrophages (B220−Thy1.2−CD49b−CD11c−CD11b+), NK cells (B220− Thy1.2−CD49b+), and T cells (CD3+CD4+ or CD3+CD8+) by flow cytometry. Representative flow cytometry plots depict the gating strategy. (B) Increasing concentrations of mCD80-Fc were incubated with mouse splenocytes (BALB/c strain top row; C57Bl/6 strain bottom row), and mCD80-Fc engagement was measured both via biotin-labeled anti-mIgG followed by streptavidin Alexa488 (“bound drug”) and by detection of CD80 ligands with competing Ab clones (“free” PD-L1 or CD28) enumerated as Antibody Binding Capacity (ABC) values. CTLA-4 was not detected on any immune cell evaluated (data not shown). L.D., limit of detection of ABC. Graphs depict mean±SD of n=3 animals/strain measured in technical duplicates. […]
Mouse splenocytes were prepared from adult BALB/c and […] mice by methods known to those of ordinary skill in the art. […] Data from the samples was acquired on a BD LSRII or BD LSRFortessa and analyzed using FlowJo, Excel, and Graphpad Prism.

T1 sequence (Q9EP73 19-290): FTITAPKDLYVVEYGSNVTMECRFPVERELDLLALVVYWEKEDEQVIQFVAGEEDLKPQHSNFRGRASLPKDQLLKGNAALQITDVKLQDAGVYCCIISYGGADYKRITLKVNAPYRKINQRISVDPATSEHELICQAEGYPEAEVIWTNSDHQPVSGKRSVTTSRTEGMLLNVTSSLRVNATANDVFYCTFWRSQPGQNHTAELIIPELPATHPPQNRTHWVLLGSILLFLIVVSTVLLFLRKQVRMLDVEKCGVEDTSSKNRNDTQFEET

B1: mouse surrogate fusion protein comprising the extracellular domain (ECD) of murine CD80 linked to the Fc domain of mouse IgG2a wild type (mCD80-Fc) (Fc fusion)
chain: VDEQLSKSVKDKVLLPCRYNSPHEDESEDRIYWQKHDKVVLSVIAGKLKVWPEYKNRTLYDNTTYSLIILGLVLSDRGTYSCVVQKKERGTYEVKHLALVKLSIKADFSTPNITESGNPSADTKRITCFASGGFPKPRFSWLENGRELPGINTTISQDPESELYTISSQLDFNTTRNHTIKCLIKYGDAHVSEDFTWEKPPEDPPDSKNEPRGPTIKPCPPCKCPAPNLLGGPSVFIFPPKIKDVLMISLSPIVTCVVVDVSEDDPDVQISWFVNNVEVHTAQTQTHREDYNSTLRVVSALPIQHQDWMSGKEFKCKVNNKDLPAPIERTISKPKGSVRAPQVYVLPPPEEEMTKKQVTLTCMVTDFMPEDIYVEWTNNGKTELNYKNTEPVLDSDGSYFMYSKLRVEKKNWVERNSYSCSVVHEGLHNHHTTKSFSRTPGK
notes: also called Murine CD80 ECD Fusion Molecules; Mouse CD80 ECD mouse Fc IgG2a
For B1, the binding result is listed as “no binding (tested: 0-1000 µg/mL)”.
